Values quoted from earlier work as cited in paper PMC8900815.

Biological target: His124 (UniProt position 124, EWVKGHAGHPE)
Assay: NMR
Settings: metal-free (no divalent cation bound)

Ribonuclease HI (RNase HI) (Escherichia coli)
pKa: around 7
